{
  "source": "paper PMC12858339",
  "origin": "cited, not measured here",
  "target": "Calmodulin (Homo sapiens) (UniProt P0DP23)",
  "data": [
    {"substance": "HIV-1 MA MA (from UniProt O93182)", "values": [
      {"measurement": "Kd", "result": 2000, "unit": "nM"}
    ]}
  ]
}
